In US20260232769A1 (WUXI BIOLOGICS IRELAND, published 2026):
Substitutions are numbered along the chain they refer to. Blank lines part the entries; values can stand above or below the binder they belong to.

What was measured:
[1] = biological target: T1, IL-2Rβ/γc complex (intermediate affinity receptor) on primary human CD8+ T cells (human, UniProt P14784 27-551; P31785 23-369); experiment: cell-based or functional assay
T1 sequence (looked up) 1: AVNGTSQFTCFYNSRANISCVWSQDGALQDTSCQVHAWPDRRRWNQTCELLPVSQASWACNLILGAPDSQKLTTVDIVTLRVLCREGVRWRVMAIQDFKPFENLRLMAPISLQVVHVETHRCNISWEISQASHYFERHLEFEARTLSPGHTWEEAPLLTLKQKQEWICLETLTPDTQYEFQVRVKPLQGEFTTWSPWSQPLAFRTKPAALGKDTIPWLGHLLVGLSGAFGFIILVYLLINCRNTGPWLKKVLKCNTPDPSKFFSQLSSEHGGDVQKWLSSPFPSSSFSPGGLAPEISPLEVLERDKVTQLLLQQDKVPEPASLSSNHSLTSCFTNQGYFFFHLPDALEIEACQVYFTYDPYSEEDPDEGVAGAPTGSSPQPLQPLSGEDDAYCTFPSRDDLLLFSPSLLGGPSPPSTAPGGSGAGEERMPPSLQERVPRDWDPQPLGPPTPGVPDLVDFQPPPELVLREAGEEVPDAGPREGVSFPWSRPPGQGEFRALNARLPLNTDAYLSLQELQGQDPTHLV
T1 sequence (looked up) 2: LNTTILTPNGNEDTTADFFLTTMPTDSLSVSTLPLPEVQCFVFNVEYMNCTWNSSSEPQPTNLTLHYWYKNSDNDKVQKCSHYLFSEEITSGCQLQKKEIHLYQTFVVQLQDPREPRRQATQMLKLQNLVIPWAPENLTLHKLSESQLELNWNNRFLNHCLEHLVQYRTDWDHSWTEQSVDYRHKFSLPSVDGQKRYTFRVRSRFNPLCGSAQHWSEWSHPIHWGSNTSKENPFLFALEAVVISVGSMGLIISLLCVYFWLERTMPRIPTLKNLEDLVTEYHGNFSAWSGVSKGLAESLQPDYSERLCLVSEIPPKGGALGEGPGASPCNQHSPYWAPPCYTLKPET

[2] = biological target: T1, IL-2Rβ/γc complex (intermediate …); experiment: cell-based or functional assay; remark: listed apart in the source

Potency reduction, pSTAT5, human primary CD8+ T [1]: 18.3 fold
pSTAT5 EC50, human primary CD8+ T [1]: 145 nM
B1: W3XX115-T2U0.E44-6.uIgG4V322 (Fc fusion)
chain: APTSSSTKKTQLQLEHLLLDLQMILNGINNYKNPKLTRMLTFKFYMPKKATELKHLQCLEEELKPLEEVLNLAQSKNFHLRPRDLISNINVIVLELKGSETTFMCEYADETATIVEFLNRWITFCQSIIESKYGPPCPPCPAPEAAGGPSVFLFPPKPKDTLMISRTPEVTCVVVDVSQEDPEVQFNWYVDGVEVHNAKTKPREEQFNSTYRVVSVLTVLHQDWLNGKEYKCKVSNKGLPSSIEKTISKAKGQPREPQVYTLPPCQEEMTKNQVSLWCLVKGFYPSDIAVEWESNGQPENNYKTTPPVLDSDGSFFLYSRLTVDKSRWQEGNVFSCSVMHEALHNHYTQKSLSLSLG
heavy: EIQLQQSGPELVKPGASVKVSCKASGYSFTDYNMYWVKQSHGESLEWIGYIDPYNGGTRYNQKFKGKATLTVDKSSSTAFMHLNSLTSEDSAVYYCARNGHWDGAWFAYWGQGTLVTVSAASTKGPSVFPLAPCSRSTSESTAALGCLVKDYFPEPVTVSWNSGALTSGVHTFPAVLQSSGLYSLSSVVTVPSSSLGTKTYTCNVDHKPSNTKVDKRVESKYGPPCPPCPAPEAAGGPSVFLFPPKPKDTLMISRTPEVTCVVVDVSQEDPEVQFNWYVDGVEVHNAKTKPREEQFNSTYRVVSVLTVLHQDWLNGKEYKCKVSNKGLPSSIEKTISKAKGQPREPQVCTLPPSQEEMTKNQVSLSCAVKGFYPSDIAVEWESNGQPENNYKTTPPVLDSDGSFFLVSRLTVDKSRWQEGNVFSCSVMHEALHNHYTQKSLSLSLG
light: DIQMNQSPSSLSASLGDTITITCHASQNINVWLSWYQQKPGNIPKLLIYKASNLHTGVPSRFSGSRSGTGFTLTISSLQPEDIATYYCHQGQSYPFTFGSGTKLEIKRTVAAPSVFIFPPSDEQLKSGTASVVCLLNNFYPREAKVQWKVDNALQSGNSQESVTEQDSKDSTYSLSSTLTLSKADYEKHKVYACEVTHQGLSSPVTKSFNRGEC

Potency reduction, pSTAT5, human primary CD8+ T [1]: 17.6 fold
pSTAT5 EC50, human primary CD8+ T [1]: 135 nM
B2: W3XX115-T2U0.E44-43.uIgG4V322 (Fc fusion)
chain: B1 chain with K32D
heavy: B1 heavy
light: B1 light

Potency reduction, pSTAT5, human primary CD8+ T [1]: 36.9 fold
pSTAT5 EC50, human primary CD8+ T [1]: 282 nM
B3: W3XX115-T2U0.E44-40.uIgG4V322 (Fc fusion)
chain: B1 chain with E110R
heavy: B1 heavy
light: B1 light

Potency reduction, pSTAT5, human activated CD8+ T [2]: 2.5 fold
B4: W3XX115-T2U10.Z73-56.uIgG4V322 (Fc fusion)
chain 1: APTSSSTKKTQLQLEHLLLDLQMILNGINNYDNPKLTRMLTIKFYMPKKATELKHLQCLEEELKPLEEVLNLAQSKNFHLRPRKLISNINVIVLELKGSETTFMCEYADETATIVEFLNRWITFCQSILESKYGPPCPPCPAPEAAGGPSVFLFPPKPKDTLMISRTPEVTCVVVDVSQEDPEVQFNWYVDGVEVHNAKTKPREEQFNSTYRVVSVLTVLHQDWLNGKEYKCKVSNKGLPSSIEKTISKAKGQPREPQVYTLPPCQEEMTKNQVSLWCLVKGFYPSDIAVEWESNGQPENNYKTTPPVLDSDGSFFLYSRLTVDKSRWQEGNVFSCSVMHEALHNHYTQKSLSLSLGK
chain 2: QVQLVESGGGVVQPGGSLRLSCAASDSIDSLVNMGWYRQAPGKQRELVALIATYITHYADFVKGRFTISRDNSKNTLYLQMNSLRAEDTAVYYCYARNIIVDYWGQGTLVTVSSGGGGSGGGGSGGGGSQVQLVESGGGVVQPGGSLRLSCAASDSIDSLVNMGWYRQAPGKQRELVALIATYITHYADFVKGRFTISRDNSKNTLYLQMNSLRAEDTAVYYCYARNIIVDYWGQGTLVTVSSESKYGPPCPPCPAPEAAGGPSVFLFPPKPKDTLMISRTPEVTCVVVDVSQEDPEVQFNWYVDGVEVHNAKTKPREEQFNSTYRVVSVLTVLHQDWLNGKEYKCKVSNKGLPSSIEKTISKAKGQPREPQVCTLPPSQEEMTKNQVSLSCAVKGFYPSDIAVEWESNGQPENNYKTTPPVLDSDGSFFLVSRLTVDKSRWQEGNVFSCSVMHEALHNHYTQKSLSLSLG

Potency reduction, pSTAT5, human activated CD8+ T [2]: 14.2 fold
B5: W3XX115-T2U10.Z73-61.uIgG4V322 (Fc fusion)
chain 1: B4 chain 1 with K84D, I92D
chain 2: B4 chain 2

Potency reduction, pSTAT5, human activated CD8+ T [2]: 58.7 fold
B6: W3XX115-T2U10.Z73-64.uIgG4V322 (Fc fusion)
chain 1: B4 chain 1 with K84D, N119R
chain 2: B4 chain 2

Potency reduction, pSTAT5, human activated CD8+ T [2]: 2.5 fold
B7: W3XX115-T2U10.Z73-63.uIgG4V322 (Fc fusion)
chain 1: B4 chain 1 with K84D, E95R
chain 2: B4 chain 2

Potency reduction, pSTAT5, human activated CD8+ T [2]: 10 fold
B8: W3XX115-T2U10.Z73-60.uIgG4V322 (Fc fusion)
chain 1: B4 chain 1 with K84D, I92R
chain 2: B4 chain 2

Potency reduction, pSTAT5, human activated CD8+ T [2]: 18.9 fold
B9: W3XX115-T2U10.Z73-59.uIgG4V322 (Fc fusion)
chain 1: B4 chain 1 with K84D, V91E
chain 2: B4 chain 2

Potency reduction, pSTAT5, human activated CD8+ T [2]: 6.5 fold
B10: W3XX115-T2U10.Z73-62.uIgG4V322 (Fc fusion)
chain 1: B4 chain 1 with K84D, L94D
chain 2: B4 chain 2

Potency reduction, pSTAT5, human activated CD8+ T [2]: 26.1 fold
B11: W3XX115-T2U10.Z73-58.uIgG4V322 (Fc fusion)
chain 1: B4 chain 1 with K84D, N88K
chain 2: B4 chain 2
